Data reported in patent US10709761B2, “Methods and compositions for preventing or treating cancer” (UNIVERSITY OF UTAH RESEARCH FOUNDATION, priority 2015, dated 2020).

Key:
[1] = tested on: elephant fibroblasts; assay: Caspase 3/7 cleavage after doxorubicin, elephant fibroblasts; type: cell-based, African elephant; settings: 10 μM and 30 μM doxorubicin
[2] = tested on: human fibroblasts; assay: Caspase 3/7 cleavage after doxorubicin, human fibroblasts; type: cell-based; settings: 10 μM and 30 μM doxorubicin
[3] = tested on: African elephant lymphocytes; assay: Annexin V / propidium iodide apoptosis after doxorubicin, elephant lymphocytes; type: cell-based; settings: 5 μM doxorubicin, 18 and 24 hours
Method: Ionizing radiation (0.5, 2, 5, 6, 10, and 20 Gy) or doxorubicin (0.005-30 μM) were used to induce DNA damage in the cultured primary PBLs, which were then evaluated for signs of apoptosis, DNA repair efficiency, and cell cycle arrest. Apoptosis was evaluated by measuring the number of cells that stained for Annexin V (AV) and propidium iodide (PI); cells were categorized as being in late apoptosis if they were AV+PI+, and in early apoptosis if they were AV+PI−. Apoptosis was also measured either using APO-TOX GLO™ (Promega, Madison, Wis.) or CASPASE-GLO® 3/7 Assay (Promega) and […]-GLO® (Promega). The results were normalized to cell viability either using counts from the MULTI-TOX-FLUOR™ assay (Promega) included with APO-TOX GLO™, or using […]-GLO® when caspase activity was measured. Statistically significant differences in apoptosis were calculated in […] PRISM®.

[4] = tested on: U-2OS cells; assay: Caspase activity / apoptosis in U-2OS cells expressing EP53 genes; type: cell-based, human; settings: compared to empty vector
Method: U-2OS cells were transfected with EP53^r5 (SEQ ID NO: 12) or EP53 ancestral (EP53^anc) (SEQ ID NO: 2), and then treated with doxycycline to induce EP53^r expression. The cells were then treated with doxorubicin to damage the DNA.
(§1) U-2OS cells were also transduced with EP53^anc (SEQ ID NO: 2). These cells were then induced to express EP53^anc (SEQ ID NO: 3), and treated with doxorubicin to trigger DNA damage.

[5] = tested on: U-2OS cells; assay: U-2OS cell viability after doxycycline induction; type: cell-based, human; settings: 72 hours after induction with doxycycline
Method: U-2OS cells were also transfected with EP53^anc (SEQ ID NO: 2) and human TP53, and the cell viability after induction with doxycycline was observed after 72 hours.

[6] = tested on: U-2OS cells; assay: U-2OS caspase activity after doxycycline induction; type: cell-based, human; settings: after induction with doxycycline
[7] = tested on: p53 target genes, p21 and MDM2; assay: Western blot of p53 pathway proteins in U-2OS cells expressing EP53^anc; type: cell-based, human
Method: For tetracycline inducible cells, the cells were treated with doxycycline for 24-48 hours prior to treatment with MG132 or doxorubicin. After the induction of DNA damage, the cells were harvested and pelleted. The cell pellets were frozen, and then lysed in cell lysis buffer containing phosphatase and protease inhibitors. The cell lysates were run on SDS-PAGE protein gels, and then transferred to PVDF membranes (western blots). The membranes were blocked, and then probed with primary antibodies to determine the p53 protein levels. The blots were probed with secondary HRP-conjugated antibodies, and the protein levels were detected using a substrate and a chemiluminometer. GAPDH was used as a loading control for each western blot. The blots were also probed for phosphorylated EP53^r at the serine-15 residue (phospho-EP53^r). DNA damage induces the phosphorylation of p53, which reduces the interaction of this protein with its negative regulator, mouse double minute 2 (MDM2) (Milczarek et al. Life Sci; 60: 1-11 (1997)).
as §1

[8] = U-2OS induced to express, doxorubicin-treated

COc1cccc2c1C(=O)c1c(O)c3c(c(O)c1C2=O)C[C@@](O)(C(=O)CO)C[C@@H]3O[C@H]1C[C@H](N)[C@H](O)[C@H](C)O1 [doxorubicin]
caspase 3/7 cleavage [1]: 9.1 fold increase | caspase 3/7 cleavage [2]: 2.24 fold increase | early apoptosis (AV+PI−) [3]: significant increase | late apoptosis (AV+PI+) [3]: significant increase

B1: EP53^anc: ancestral elephant TP53 gene (SEQ ID NO: 2) encoding elephant p53 protein (SEQ ID NO: 3), expressed from vector in cells (protein, listed as Loxodonta africana)
chain: MEEPQSDLSTELPLSQETFSYLWELLPENPVLSPTLPPAVEVMDDLLLSEDTANWLESQVEAQGMSTTPAPATPTPVAPAPATSWTLSSSVPSQKTYPGTYGFRLGFLHSGTAKSVTCTYSPDLNKLFCQLAKTCPVQLWVASPPPPGTRVRTMAIYKKSEHMTEVVKRCPHHERCSDSSDGLAPPQHLIRVEGNLRAEYLEDSITLRHSVVVPYEPPEVGSDCTTIHFNFMCNSSCMGGMNRRPILTIITLEDSSGNLLGRNSFEVRICACPGRDRRTEEENFHKKGEPCPEPPPPGRSTKRALPTNTSSSTQPKKKPLDEEYFTLQIRGRERFKMFLELNEALELKDAQAGKEPEGSRAHSSPSKSKKGQSTSRHKKPMFKREGPDSD
increase in caspase activity [4, 8]: 20 fold | apoptosis ([4]; U-2OS, absence of doxorubicin treatment): significant apoptosis | cell viability [5]: 35.6% | caspase activity [6]: 14.22% | endogenous human p53 expression ([7]; U-2OS cells expressing EP53^anc): less | p53 target genes, p21 and MDM2 (western blot) [7, 8]: increase
